Twelve compounds from patent US9062123B2, “Labelled adrenomedullin derivatives and their use for imaging and therapy” (PLUMOSCIENCE INC., priority 2004, dated 2015) can be followed below.

For series [1] the following is noted: dog, in vivo, iv. Here is the method:
All experimental procedures were performed in accordance with regulations and ethical guidelines from Canadian Council for the Care of Laboratory Animals, and received approval by the animal ethics and research committee of the Montreal Heart Institute. Mongrel dogs weighing between 20-30 kg and presenting negative Dirofilaria imitis blood test results were anesthetized by an initial intravenous dose of pentobarbital sodium (50 mg/kg). Animals were intubated and mechanically ventilated using room air. Cutaneous electrocardiographic leads were installed, and 18F cathlon with three-way was installed on both saphenous vein for 0.9% sodium chloride perfusion, radiolabelled injection and blood collection. A right arterial femoral catheter was also inserted using the Seldinger technique for continuous blood pressure monitoring.
Purified and buffered ^99mTc-DTPA-hAM1-52 samples were injected in right saphenous vein (n=6). A series of 2 mL blood samples were collected 1 min after the initial AM injection for a 10-min period, then repeated every 5 min for the following 50-min period. Blood samples were taken via left saphenous vein. […] The blood samples were then placed in an automatic gamma counter (model 1272 Clinigamma, LKB Wallac, Finland) to determine ^99mTc activity.
Plasma kinetics of ^99mTc-DTPA-hAM1-52 was fitted using a two-phase exponential decay equation with GraphPad Prism version 4.0 software. Time effects on each organ biodistribution were analyzed by two-way repeated measures ANOVA followed, when a significant interaction was found, by Bonferroni/Dunn t-test. Multiple organs biodistribution comparison at 30 minutes was performed by one-way ANOVA followed, when a significant interaction was found, by Bonferroni/Dunn t-test. A P values of <0.05 was considered significant. All results are reported as mean±S.D.

The conditions of series [2]: dog, in vivo.
Protocol: Multi-organic biodistribution of ^99mTc-DTPA-hAM1-52 was evaluated with an Anger camera (420/550 Mobile Radioisotope Gamma Camera; Technicare, Solon, Ohio, USA) equipped with on board computer, and a low-energy parallel-hole collimator (model 14S22014). Following intravenous injection of ^99mTc-DTPA-hAM1-52, dynamic acquisition of the lungs, heart, liver and kidneys was recorded for a 30-min period (one frame/sec during the first minute, then one frame/min for the remaining time). Static acquisitions was also recorded for whole individual organs, including lungs, kidneys, liver, heart, bladder, gallbladder and muzzle, at 30, 60, 120, 240 minutes after initial injection. These recordings were performed both in ventral and dorsal positions.
Dynamic and static acquisitions were evaluated by using Matlab version 7.01 image analysis tools software. The ^99mTc total count, ^99mTc mean count, and region of interest (ROI) size were calculated for each organ. Data correction was applied for 1) radioactive decay, 2) surgical table attenuation (dorsal images only), 3) geometric mean, and 4) organ's attenuation based on transmission factor.
The target in series [3] is AM1 (CRLR+RAMP2) receptor, lungs of dogs. Put plainly: Displacement of labelled human adrenomedullin in the lungs of dogs. Conditions: displacement of labelled hAM. The series is classed as binding, dog.

Usually IC50 stands for the concentration that inhibits the measured activity by half.

Turning to `CC[C@H](C)[C@H](NC(=O)[C@H](CCC(N)=O)NC(=O)[C@H](Cc1c[nH]cn1)NC(=O)[C@H](C)NC(=O)[C@H](CC(C)C)NC(=O)[C@H](CCCCN)NC(=O)[C@H](CCC(N)=O)NC(=O)[C@@H](NC(=O)[C@@H](NC(=O)[C@@H]1CSSC[C@H](NC(=O)CNC(=O)[C@H](Cc2ccccc2)NC(=O)[C@H](CO)NC(=O)[C@H](CCCNC(=N)N)NC(=O)[C@H](CC(C)C)NC(=O)CNC(=O)[C@H](CCC(N)=O)NC(=O)[C@H](Cc2ccccc2)NC(=O)[C@H](CC(N)=O)NC(=O)[C@H](CC(N)=O)NC(=O)[C@H](CCSC)NC(=O)[C@H](CO)NC(=O)[C@H](CCC(N)=O)NC(=O)[C@H](CCCNC(=N)N)NC(=O)[C@H](Cc2ccc(O)cc2)NC(=O)CN(CCN(CCN(CC(=O)O)CC(=O)O)CC(=O)O)CC(=O)O)C(=O)N[C@@H](CCCNC(=N)N)C(=O)N[C@@H](Cc2ccccc2)C(=O)NCC(=O)N[C@@H]([C@@H](C)O)C(=O)N1)[C@@H](C)O)C(C)C)C(=O)N[C@@H](Cc1ccc(O)cc1)C(=O)N[C@@H](CCC(N)=O)C(=O)N[C@@H](Cc1ccccc1)C(=O)N[C@H](C(=O)N[C@@H](CC(=O)O)C(=O)N[C@@H](CCCCN)C(=O)N[C@@H](CC(=O)O)C(=O)N[C@@H](CCCCN)C(=O)N[C@@H](CC(=O)O)C(=O)N[C@@H](CC(N)=O)C(=O)N[C@H](C(=O)N[C@@H](C)C(=O)N1CCC[C@H]1C(=O)N[C@@H](CCCNC(=N)N)C(=O)N[C@@H](CO)C(=O)N[C@@H](CCCCN)C(=O)N[C@H](C(=O)N[C@@H](CO)C(=O)N1CCC[C@H]1C(=O)N[C@@H](CCC(N)=O)C(=O)NCC(=O)N[C@@H](Cc1ccc(O)cc1)C(N)=O)[C@@H](C)CC)C(C)C)[C@@H](C)O` [^99mTc-DTPA-hAM1-52, metal not drawn], in series [1], the distribution half-life is recorded as 1.75 min; the elimination half-life came out at 42.14 min; the “ratio of rate constant for exchange between central and peripheral compartments (k1-2/k2-1)” value was 24.09. In addition, in series [2], the “bladder retention, % of the injected dose” value turned out to be 5.67±1.75%; the dynamic multi-organic biodistribution entry was “significant pulmonary first pass retention”; the “gallbladder retention, % of the injected dose” value is recorded as 0.96±0.38%; the “heart retention, % of the injected dose” value is listed as 7.17±2.04%. Moreover, in series [2], the “kidneys retention, % of the injected dose” value is 19.17±3.06%; the “liver retention, % of the injected dose” value turned out to be 11.67±1.37%; the “lung retention, % of the injected dose” value is recorded as 15.83±2.32%; the “lungs retention, % of the injected dose” value is given as 27.00±2.76%. Besides, the “muzzle retention, % of the injected dose” value in series [2] is 1.17±0.41%. For the compound `CC[C@H](C)[C@H](NC(=O)[C@H](CCC(N)=O)NC(=O)[C@H](Cc1c[nH]cn1)NC(=O)[C@H](C)NC(=O)[C@H](CC(C)C)NC(=O)[C@H](CCCCN)NC(=O)[C@H](CCC(N)=O)NC(=O)[C@@H](NC(=O)[C@@H](NC(=O)[C@@H]1CSSC[C@H](NC(=O)CNC(=O)[C@H](Cc2ccccc2)NC(=O)[C@H](CO)NC(=O)[C@H](CCCNC(=N)N)NC(=O)[C@H](CC(C)C)NC(=O)CNC(=O)[C@H](CCC(N)=O)NC(=O)[C@H](Cc2ccccc2)NC(=O)[C@H](CC(N)=O)NC(=O)[C@H](CC(N)=O)NC(=O)[C@H](CCSC)NC(=O)[C@H](CO)NC(=O)[C@H](CCC(N)=O)NC(=O)[C@H](CCCNC(=N)N)NC(=O)[C@@H](N)Cc2ccc(O)cc2)C(=O)N[C@@H](CCCNC(=N)N)C(=O)N[C@@H](Cc2ccccc2)C(=O)NCC(=O)N[C@@H]([C@@H](C)O)C(=O)N1)[C@@H](C)O)C(C)C)C(=O)N[C@@H](Cc1ccc(O)cc1)C(=O)N[C@@H](CCC(N)=O)C(=O)N[C@@H](Cc1ccccc1)C(=O)N[C@H](C(=O)N[C@@H](CC(=O)O)C(=O)N[C@@H](CCCCN)C(=O)N[C@@H](CC(=O)O)C(=O)N[C@@H](CCCCN)C(=O)N[C@@H](CC(=O)O)C(=O)N[C@@H](CC(N)=O)C(=O)N[C@H](C(=O)N[C@@H](C)C(=O)N1CCC[C@H]1C(=O)N[C@@H](CCCNC(=N)N)C(=O)N[C@@H](CO)C(=O)N[C@@H](CCCCN)C(=O)N[C@H](C(=O)N[C@@H](CO)C(=O)N1CCC[C@H]1C(=O)N[C@@H](CCC(N)=O)C(=O)NCC(=O)N[C@@H](Cc1ccc(O)cc1)C(N)=O)[C@@H](C)CC)C(C)C)[C@@H](C)O` [hAM (cyclic), human adrenomedullin, reference compound], in series [3], the concentration for half-maximal inhibition (IC50) was determined as […]. Consider `CC[C@H](C)[C@H](NC(=O)[C@H](CCC(N)=O)NC(=O)[C@H](Cc1c[nH]cn1)NC(=O)[C@H](C)NC(=O)[C@H](CC(C)C)NC(=O)[C@H](CCCCN)NC(=O)[C@H](CCC(N)=O)NC(=O)[C@@H](NC(=O)[C@@H](NC(=O)[C@H](CS)NC(=O)[C@@H](NC(=O)CNC(=O)[C@H](Cc1ccccc1)NC(=O)[C@H](CCCNC(=N)N)NC(=O)[C@H](CS)NC(=O)CNC(=O)[C@H](Cc1ccccc1)NC(=O)[C@H](CO)NC(=O)[C@H](CCCNC(=N)N)NC(=O)[C@H](CC(C)C)NC(=O)CNC(=O)[C@H](CCC(N)=O)NC(=O)[C@H](Cc1ccccc1)NC(=O)[C@H](CC(N)=O)NC(=O)[C@H](CC(N)=O)NC(=O)[C@H](CCSC)NC(=O)[C@H](CO)NC(=O)[C@H](CCC(N)=O)NC(=O)[C@H](CCCNC(=N)N)NC(=O)[C@@H](N)Cc1ccc(O)cc1)[C@@H](C)O)[C@@H](C)O)C(C)C)C(=O)N[C@@H](Cc1ccc(O)cc1)C(=O)N[C@@H](CCC(N)=O)C(=O)N[C@@H](Cc1ccccc1)C(=O)N[C@H](C(=O)N[C@@H](CC(=O)O)C(=O)N[C@@H](CCCCN)C(=O)N[C@@H](CC(=O)O)C(=O)N[C@@H](CCCCN)C(=O)N[C@@H](CC(=O)O)C(=O)N[C@@H](CC(N)=O)C(=O)N[C@H](C(=O)N[C@@H](C)C(=O)N1CCC[C@H]1C(=O)N[C@@H](CCCNC(=N)N)C(=O)N[C@@H](CO)C(=O)N[C@@H](CCCCN)C(=O)N[C@H](C(=O)N[C@@H](CO)C(=O)N1CCC[C@H]1C(=O)N[C@@H](CCC(N)=O)C(=O)NCC(=O)N[C@@H](Cc1ccc(O)cc1)C(N)=O)[C@@H](C)CC)C(C)C)[C@@H](C)O` [hAM linear, Linear adrenomedullin], for which the IC50 in series [3] came to 7.1 nM.

Consider “CGRP(8-37): CGRP fragment 8-37 [reference compound]”, for which, in series [3], the IC50 is no less than 10000 nM. In turn, N-Ac hAM: N-terminal acetylated AM registered an IC50 in series [3] of 0.041 nM. For “PAMP: synthetic peptide of Table 1, not further defined (ARLDVASEFRKKWNKWALSR) [reference compound]”, the IC50 in series [3] is no less than 10000 nM. Consider “hAM2(16-47): fragment 16-47 of hAM2 (QVQNLSHRLWQLMGPAGRQDSAPVDPSSPHSY) [reference compound]”, for which the half-maximal inhibitory concentration (IC50) in series [3] is 980 nM.

As to “hAM2: AM2, a peptide within the same family as AM [reference compound]”, the IC50 in series [3] is 480 nM. The compound “hAM(1-25): human adrenomedullin fragment, amino acids 1-25 (YRQSMNNFQGLRSFGCRFGTCTVQK)” came in with an IC50 in series [3] of no less than 10000 nM. Regarding “hAM(13-52): human adrenomedullin fragment, amino acids 13-52”, in series [3], the IC50 was determined as 34 nM.

In turn, “hAM(26-52): human adrenomedullin fragment, amino acids 26-52 (LAHQIYQFTDKDKDNVAPRSKISPQGY)” had an IC50 in series [3] of no less than 1000 nM. In series [3], “hAM(40-52): human adrenomedullin fragment, amino acids 40-52 (NVAPRSKISPQGY)” registered an IC50 of no less than 10000 nM.
